Test results as given in PMC3204800.
One block for each molecule: values may come before it.

Key:
[1] = target: Third plant homeodomain (PHD3) finger of MLL, residues 1565-1627 (human) (UniProt Q03164); experiment: ITC
Cyp33 RRM domain = Cyp33 RRM domain (human, UniProt Q9UNP9 1-90); experiment: NMR
Sequence of Cyp33 RRM domain (Q9UNP9 1-90): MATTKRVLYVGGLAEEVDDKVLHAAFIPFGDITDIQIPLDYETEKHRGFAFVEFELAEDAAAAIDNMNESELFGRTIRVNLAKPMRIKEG

Sequence of Third plant homeodomain (PHD3) finger of MLL, residues 1565-1627 (human) (Q03164 1565-1627): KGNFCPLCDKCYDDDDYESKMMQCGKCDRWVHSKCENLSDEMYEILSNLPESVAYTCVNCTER

- fold reduction of affinity against the wild type [1]: 35 fold
Molecule: Cyp33 RRM domain F49A mutant (from UniProt Q9UNP9 1-90) (domain or fragment)

- Kd [1]: 1.9 µM
- dH [1]: -10 kcal
Molecule: RRM domain of human Cyclophilin 33 (Cyp33), residues 1-90 (from UniProt Q9UNP9 1-90) (domain or fragment)

Continued, molecule first:

Molecule: Cyp33 RRM domain L39A mutant (from UniProt Q9UNP9 1-90) (domain or fragment)
- fold reduction of affinity against the wild type [1]: 10 fold

B1: AAUAAA RNA (ssRNA)
RNA: AAUAAA
- Kd (Cyp33 RRM domain): 198 ± 11 µM
